From PMC2853022

Molecular target: NS3h (helicase domain of HCV NS3) (Hepatitis C virus, Con 1b replicon …, UniProt Q9WMX2 1192-1657)
Assay: stopped-flow fluorescence

Chain of NS3h (helicase domain of HCV NS3) (Q9WMX2 1192-1657): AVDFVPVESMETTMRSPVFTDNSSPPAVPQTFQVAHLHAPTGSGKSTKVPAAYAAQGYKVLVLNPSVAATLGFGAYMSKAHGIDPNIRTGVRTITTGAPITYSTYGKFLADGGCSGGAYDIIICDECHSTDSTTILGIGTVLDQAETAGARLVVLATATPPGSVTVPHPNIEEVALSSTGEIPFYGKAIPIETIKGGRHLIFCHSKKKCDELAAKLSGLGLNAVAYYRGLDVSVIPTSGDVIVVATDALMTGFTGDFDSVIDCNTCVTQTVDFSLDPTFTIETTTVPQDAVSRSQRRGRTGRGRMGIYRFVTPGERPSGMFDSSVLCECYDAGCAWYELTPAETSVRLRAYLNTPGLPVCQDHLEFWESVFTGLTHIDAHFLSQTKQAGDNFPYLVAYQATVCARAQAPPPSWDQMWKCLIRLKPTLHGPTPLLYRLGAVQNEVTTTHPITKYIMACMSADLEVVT

B1: 37:22-mer partial duplex (dsDNA)
DNA 1: GACTGACGCTAGGCTGACAGGATTTTTTTTTTTTTTT
DNA 2: TCCTGTCAGCCTAGCGTCAGTC
- binding result: binds
